# Measured values as given in the RNAGym collection of RNA variant scans (doi:10.1021/acssynbio.7b00057).
# B1: Pistol ribozyme (parent)
# chain: GGGUCGUUGUUCCAUAAUCGCGUGGAUAUGGCACGCAAGUUUCUACCGGGCACCGUAAAUGUCCGACUGGAGCCGUUCGGGCGGCUAUAAACAGACCUCAGGCCCGAAGCGUGGCGGCACCUGCCGCCGGUGGUAAAAAAGAUCGGAAGAGCACACGUCU
# Variants of: B1
# Assay: aptazyme ON/OFF ratio, guanine; higher = stronger switching; co-transcriptional cleavage with and without guanine
row,Variant,aptazyme ON/OFF ratio
1,U7C U8G U10G U11A C13G,1.13
2,U7C U8G U10G U11A C13A,1.18
3,U7C U8G U10G U11A C12A,1.21
4,U7C U8G U10G U11A C12G,1.14
5,U7C U8G U10G U11A C12U,1.37
6,U7C U10G U11A C12G C13A,1.09
7,U7C U10G U11A C12G C13G,1.15
8,U7C U10G U11A C12G C13U,1.22
9,U7C U10C C12G C13A,1.23
10,U7C U10C C12G C13U,1.21
11,U7C U10C C12G C13G,1.18
12,U7C U10G U11A C12A,1.13
13,U7C U10G U11A C12G,1.15
14,U7C U10G U11A C12U,1.15
15,U7C U10C U11A C12A C13U,1.3
16,U7C U10C U11A C12A C13A,1.49
17,U7C U10C U11A C12A C13G,1.26
18,U7C U10A U11C C12G C13G,1.31
19,U7C U10A U11C C12G C13A,1.2
20,U7C U10A U11C C12G C13U,1.22
21,U7C U8G U10G U11C C12G C13G,1.18

row,Variant,aptazyme ON/OFF ratio
1,U7C U8G U10G U11C C12G C13U,1.26
2,U7C U8G U10G U11C C12G C13A,1.16
3,U7C U8G U10C U11C C12U,2.76
4,U7C U8G U10C U11C C12G,1.41
5,U7C U8G U10C U11C C12A,1.48
6,U7C U10C U11A C12G C13A,1.15
7,U7C U10C U11A C12G C13U,1.15
8,U7C U10C U11A C12G C13G,1.15
9,U7C U10C C12U,3.58
10,U7C U10C C12G,1.28
11,U7C U10C C12A,1.26
12,U7C U8G U11A C12U C13U,1.12
13,U7C U8G U11A C12U C13A,1.09
14,U7C U8G U11A C12U C13G,1.09
15,U7C U10A U11G C13G,1.17
16,U7C U10A U11G C13A,1.24
17,U7C U10A U11G C13U,1.28
18,U7C U10G C12U,1.32
19,U7C U10G C12A,1.11
20,U7C U10G C12G,1.18
21,U7C U10G C13G,1.16

row,Variant,aptazyme ON/OFF ratio
1,U7C U10G C13U,1.39
2,U7C U10G C13A,1.2
3,U7C U8G U10G U11C C12A,1.34
4,U7C U8G U10G U11C C12U,1.16
5,U7C U8G U10G U11C C12G,1.55
6,U7C U8G U10G U11G C12G C13A,1.17
7,U7C U8G U10G U11G C12G C13G,1.15
8,U7C U8G U10G U11G C12G C13U,1.26
9,U7C U8G U10C U11G C12A C13G,1.1
10,U7C U8G U10C U11G C12A C13A,1.11
11,U7C U8G U10C U11G C12A C13U,1.32
12,U7C U10A U11G C12A C13A,1.17
13,U7C U10A U11G C12A C13U,1.17
14,U7C U10A U11G C12A C13G,0.975
15,U7C U10A U11C C12U C13A,1.05
16,U7C U10A U11C C12U C13U,1.05
17,U7C U10A U11C C12U C13G,1.07
18,U7C U10A C12U C13U,1.35
19,U7C U10A C12U C13A,1.19
20,U7C U10A C12U C13G,1.14
21,U7C U8G U10G,1.22

row,Variant,aptazyme ON/OFF ratio
1,U7C U8G U10C U11C C12A C13U,1.15
2,U7C U8G U10C U11C C12A C13G,1.14
3,U7C U8G U10C U11C C12A C13A,1.16
4,U7C U10G U11A,1.1
5,U7C U10G U11C,1.1
6,U7C U8G U11C C13G,1.12
7,U7C U8G U11C C13A,1.3
8,U7C U8G U11C C13U,1.36
9,U7C U10C U11G C12A C13U,1.33
10,U7C U10C U11G C12A C13A,1.11
11,U7C U10C U11G C12A C13G,1.19
12,U7C U8G U10C U11C C12U C13A,1.04
13,U7C U8G U10C U11C C12U C13U,1.1
14,U7C U8G U10C U11C C12U C13G,1.23
15,U7C U10A U11A C13U,1.19
16,U7C U10A U11A C13G,1.2
17,U7C U10A U11A C13A,1.28
18,U7C U10A U11C C12A C13G,1.12
19,U7C U10A U11C C12A C13A,1.1
20,U7C U10A U11C C12A C13U,1.1
21,U7C U8G U10C U11G C12U C13G,1.17
